Laboratory results as given in doi:10.1101/2025.04.30.25326597.

Biological target: BORCS5 L128Vfs*86, C-terminally GFP-tagged (human) (UniProt Q969J3)
Test: co-IP; GFP-Trap agarose precipitation of C-terminally GFP-tagged BORCS5 constructs from lysates of transfected cells 24 h after transfection (10 mM Tris-Cl pH 7.5, 150 mM NaCl, 0.5 mM EDTA, 1% Triton X-100, 10% glycerol), 2 h at 4°C, five washes; endogenous SNAPIN and BORCS7 detected by immunoblotting; GFP alone as control

percent less co-immunoprecipitated than with WT: 30%
B1: BORCS7 (natural protein)
chain: MMATGTPESQARFGQSVKGLLTEKVTTCGTDVIALTKQVLKGSRSSELLGQAARNMVLQEDAILHSEDSLRKMAIITTHLQYQQEAIQKNVEQSSDLQDQLNHLLK
